In data set [1] the target is Φ11 dUTPase, dUTPase enzyme from the Φ11 Staphylococcal phage (Staphylococcal phage Φ11). Nature of the data set: inhibition of enzyme activity (steady-state dUTPase kinetics); 20 nM Φ11 dUTPase, 1 mM HEPES-HCl pH 7.5, 5 mM MgCl2, 150 mM KCl, phenol red, 293 K; the two proteins preincubated 5 min; quadratic binding equation fitted; apparent Ki.
For data set [2] the target is unchanged.
Data set [3] has the same target. This is another data set of the same source.
For another data set, the target named is Stl-CTD (Staphylococcus aureus pathogenicity …, UniProt Q9F0J8 85-267). Description: EMSA; no shift at 2-30 uM Stl-CTD (monomer). The settings on record: protein: recombinant; tags: N-terminal GST removed by thrombin (pGEX-4T-1); label: none (GelRed stain); blunt. For orientation: A gel shift assay detects complexes by their altered migration in electrophoresis.

For data set [4], the target named is Stl (SaPIbov1 repressor), wild type (Staphylococcus aureus pathogenicity …, UniProt Q9F0J8). Description: EMSA; shift at 1 uM Stl (monomer). Conditions: protein: recombinant; tags: N-terminal GST removed by thrombin (pGEX-4T-1); chain copies: 2; label: none (GelRed stain); blunt.

In the case of “Stl-Q40A,N41A double mutant of the SaPIbov1 repressor Stl (natural protein)”, in data set [1], the Ki was found to be 1.4 nM. Moreover, the maximal inhibition of Φ11 dUTPase activity by Stl-AA in data set [2] was above 90%.
With “Stl-CTD, carboxy-terminal domain of the SaPIbov1 pathogenicity island repressor Stl (domain or fragment)”, the Ki in data set [1] came to 1.5 nM. Moreover, in data set [3], the maximum inhibition of Φ11 dUTPase activity at saturating Stl-CTD concentration was found to be 40%.

B1: 57mer Stl-binding dsDNA (dsDNA)
DNA 1: GCTCATATTATTCCTCTCCTACCATTTTATCTCTAATTGAGATATTTATATTCAGAT
DNA 2: ATCTGAATATAAATATCTCAATTAGAGATAAAATGGTAGGAGAGGAATAATATGAGC
With B1, the binding result with Stl-CTD is on record as “no binding”; in data set [4] it was “binds”.
